Data on three substances can be found in PMC10465592, “Reduced ADP off-rate by the yeast CCT2 double mutation T394P/R510H which causes Leber congenital amaurosis in humans” (Communications Biology, 2023).

Holding throughout (assay): steady-state ATPase, coumarin-labelled phosphate-binding protein fluorescence, fit to two allosteric transitions
What all share (assay type): biochemical, Saccharomyces cerevisiae
Common to all, as to conditions: 25 °C, pH 7.5 Tris-HCl, 10 mM MgCl2, 50 mM KCl, 20% glycerol, 1 mM DTT, first ring (stronger site), cooperative

In data set [1] the test system is T1, Nc1ncnc2c1ncn2[C@@H]1O[C@H](COP(=O)(O)OP(=O)(O)OP(=O)(O)O)[C@@H](O)[C@H]1O.
T1 construct: native complex from yeast cells, two back-to-back rings each of eight distinct subunits CCT1-CCT8; CCT2 mutations introduced in the chromosomal gene
The source says:
steady-state ATPase, coumarin-labelled phosphate-binding protein fluorescence, fit to two allosteric transitions on CCT/TRiC (Saccharomyces cerevisiae) | In the case of the T394P single mutant, the values of the apparent ATP binding

Data set [2] shares this test system. The source says: steady-state ATPase, coumarin-labelled phosphate-binding protein fluorescence, fit to two allosteric transitions on CCT/TRiC (Saccharomyces cerevisiae) | In the case of the wild-type, the values of the apparent ATP binding constants
This is another data set of the same source.

Data set [3] has the same test system. The source says:
steady-state ATPase, coumarin-labelled phosphate-binding protein fluorescence, fit to two allosteric transitions on CCT/TRiC (Saccharomyces cerevisiae) | In the case of the R510H single mutant, the values of the apparent ATP binding
This is another data set of the same source.

Turning to “CCT/TRiC (Saccharomyces cerevisiae) (Saccharomyces cerevisiae S288C; P39076:T394P)”, in data set [1], the K0.5 is 8.9 (±3.4) μM and the kcat was 0.11 (±0.03) s^-1.

Turning to “CCT/TRiC (Saccharomyces cerevisiae) (Saccharomyces cerevisiae S288C)”, in data set [2], the K0.5 is 8.3 (±1.6) μM and the kcat was 0.043 (±0.005) s^-1.

As for “CCT/TRiC (Saccharomyces cerevisiae) (Saccharomyces cerevisiae S288C; P39076:R510H)”, in data set [3], the K0.5 is recorded as 7.1 (±2.4) μM and the kcat is 0.10 (±0.03) s^-1.
